Assay results published in article PMC8632296 (mAbs, 2021).

What was measured:
[1] = target: human carbonic anhydrase IX on cells and in tumour tissue (Homo sapiens, UniProt Q16790); assay: plate-based cell binding assay
[2] = target: recombinant human carbonic anhydrase IX extracellular domain, dimer (Homo sapiens, UniProt Q16790); assay: SPR
[3] = target: recombinant human carbonic anhydrase IX extracellular domain, monomer (human, UniProt Q16790); assay: SPR

EC50 [1] [pM]	Kd [2] [pM]	koff [2] [s⁻¹]	kon [2] [M⁻¹ s⁻¹]	Kd [3] [pM]	koff [3] [s⁻¹]	kon [3] [M⁻¹ s⁻¹]	Binder
1160	189	7.68e-05	406000	826	0.00019	229000	m4A2, recombinant murine anti-hCAIX antibody (mouse IgG2a) (antibody, V domains shown) VH: EVKLEESGGGLVQPGRSMKLSCVASGFTFSYYWMDWVRQSPEKGLEWVAEIRLKSDNYATHYAESVKGRFTISRDDSKSSVYLQMNNLRAEDTGIYYCTRAPHYYGYFDYWGQGTTLTVSS VL: QIVLTQSPAVMSAFPGEKVTMTCSASSSVGYMHWYQQKAGSSPRLLIYDTSNLSSGVPARCSGSGSGTSYSLTISRMEAEDAATYYCQQWRSYPPTFGGGTKLEIK
221	32	0.000115	3.58e+06	34500	0.0524	1.52e+06	c12H8, recombinant chimeric anti-hCAIX antibody (human IgG1) (antibody, V domains shown) VH: QIQLVQSGPELKKPGETVKISCKASGYTFTNYGMNWVQQAPGKGLKWMGWINTYTGEPTYADDFKGRFAFSLETSASTAYLQINNLKNEDMATYFCARGGIATPTSYWGQGTTLTVSS VL: not shown
21800	–	–	–	–	–	–	m9B6, recombinant murine anti-hCAIX antibody (mouse IgG2a) (antibody, V domains shown) VH: QVQLQQPGAELVKPGASVKLSCKASGYIFTTKWINWVKQRPGQGLEWIGNIYPGSSNTYYNEKFKNKATLTVDKSSNTAHLQLSSLTSEDSAVYYCARGIANWGQGTPVTVSA VL: DIVLTQSPSSLAVSLGQRATISCKASQSVDYDGNSYMNWFQQKPGQPPKLLIYEASSLESGIPARISGSGSGTDFTLNIHPVEEEDAATYYCQQSYEGPYTFGGGTKLEIK
